According to PMC12272874:

Target: N-terminal FMN-binding domain of human methionine synthase reductase (ΔCMTRR, residues 1 to 231) (UniProt Q9UBK8)
Experiment: stopped-flow absorption spectroscopy; MTR•cob(II)alamin (40 μM) rapidly mixed with ΔCMTRRhq (70 μM) in Buffer D (100 mM potassium phosphate, pH 7.4), anaerobic, 24 °C; increase in absorbance at 464 nm (loss of His-785 coordination) over 60 s, double exponential fit
Conditions: other: stopped-flow absorption spectroscopy

N-terminal FMN-binding domain of human methionine synthase reductase (ΔCMTRR, residues 1 to 231), sequence (Q9UBK8 1-231, stated change not applied): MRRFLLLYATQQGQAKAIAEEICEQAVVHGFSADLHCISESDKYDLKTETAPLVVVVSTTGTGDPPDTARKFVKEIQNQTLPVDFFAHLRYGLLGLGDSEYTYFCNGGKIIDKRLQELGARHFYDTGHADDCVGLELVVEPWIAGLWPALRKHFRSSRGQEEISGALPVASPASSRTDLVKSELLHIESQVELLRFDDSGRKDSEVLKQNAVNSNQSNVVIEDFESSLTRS
P1173L variant of human methionine synthase (MTR), full-length recombinant, sequence (chain, as listed by the source P1173L): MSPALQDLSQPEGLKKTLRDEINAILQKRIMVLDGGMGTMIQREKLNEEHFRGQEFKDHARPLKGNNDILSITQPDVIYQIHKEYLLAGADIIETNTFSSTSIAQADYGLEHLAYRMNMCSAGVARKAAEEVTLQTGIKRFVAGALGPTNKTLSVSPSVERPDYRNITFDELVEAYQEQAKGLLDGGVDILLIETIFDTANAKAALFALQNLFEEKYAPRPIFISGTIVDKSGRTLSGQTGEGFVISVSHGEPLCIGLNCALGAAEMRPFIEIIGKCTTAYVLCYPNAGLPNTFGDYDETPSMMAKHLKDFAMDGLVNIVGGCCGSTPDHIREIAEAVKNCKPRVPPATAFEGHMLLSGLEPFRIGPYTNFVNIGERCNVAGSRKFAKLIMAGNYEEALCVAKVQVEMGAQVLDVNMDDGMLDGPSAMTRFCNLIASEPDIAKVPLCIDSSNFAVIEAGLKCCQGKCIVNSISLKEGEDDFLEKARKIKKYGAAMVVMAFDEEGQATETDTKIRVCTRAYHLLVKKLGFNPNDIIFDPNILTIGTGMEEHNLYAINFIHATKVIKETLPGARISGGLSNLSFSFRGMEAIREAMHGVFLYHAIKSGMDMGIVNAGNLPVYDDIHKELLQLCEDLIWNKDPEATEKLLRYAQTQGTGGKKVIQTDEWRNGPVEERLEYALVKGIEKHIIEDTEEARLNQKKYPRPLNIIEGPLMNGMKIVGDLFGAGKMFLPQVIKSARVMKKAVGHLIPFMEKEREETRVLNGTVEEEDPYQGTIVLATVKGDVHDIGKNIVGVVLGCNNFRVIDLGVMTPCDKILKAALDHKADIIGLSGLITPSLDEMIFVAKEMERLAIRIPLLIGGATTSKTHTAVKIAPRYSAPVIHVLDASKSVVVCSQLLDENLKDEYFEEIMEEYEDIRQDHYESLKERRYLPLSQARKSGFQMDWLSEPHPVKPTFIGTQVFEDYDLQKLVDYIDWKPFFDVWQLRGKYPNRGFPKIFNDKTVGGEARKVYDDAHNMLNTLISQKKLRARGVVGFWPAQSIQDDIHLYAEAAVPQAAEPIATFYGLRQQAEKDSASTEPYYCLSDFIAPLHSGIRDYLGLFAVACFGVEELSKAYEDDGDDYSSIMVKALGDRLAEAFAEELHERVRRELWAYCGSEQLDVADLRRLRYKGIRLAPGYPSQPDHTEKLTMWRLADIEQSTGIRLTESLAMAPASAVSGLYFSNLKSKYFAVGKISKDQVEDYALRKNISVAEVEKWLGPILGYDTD
Human methionine synthase (MTR), wild-type, full-length recombinant, sequence (chain, as listed by the source): as the sequence (chain, as listed by the source P1173L) above, with L1173P counted along it

Row | Substance | observed rate constant for complex formation (kobs)
1 | Human methionine synthase (MTR), wild-type, full-length recombinant | the observed rate constant for complex formation was 0.1 ± 0.01 s^−1
2 | P1173L variant of human methionine synthase (MTR), full-length recombinant | the observed rate constant for complex formation was 0.1 ± 0.01 s^−1
